B1: PRT-690 (protein)
chain: MQITSVWTKGVTPPTPEQFRYNNEDVIHAPYLANQGWYDITKTFNGKDNLLCGAATAGNMLHWWFDQNKTEIEAYLSKYPEKQKIIFNNQELFDLRAAINTKDSQTNSQLFNYFRDKAFPNLSARQLGVMPDLVLDMFINGYYLNVFKTQSTDVNRPYQDKDKRGGIFDAVFNRGDQTTLLTARHDLKNKTLNDISTLIKQELSSGKALALSHTYANVSISHVINLWGADFNAEGNLEAIYVTDSDANSNIGMKKYKVGVNAHGKVAISAKKIEGENIGAQVLGLFTLSSGKDIWQKLSLEHHHHHH
B2: PRT-605 (protein)
chain: MQITSVWTKGVTPLTPEQFRYNNEDVIHAPYLAHQGWYDITKAFDGKDNLLCGAATAGNMLHWWFEQNKTEIEAYLSKYGDTQKIIFNNQELFDLKAAIDTKDSQTNSQLFNYFRDKAFPNLSARQLGVMPDLVLDMFINGYYLNVFKTQSTDVNRPYQDKDKRGGIFDAVFTRGDQTTLLTARHDLKNKGLNDISTIIKQELTEGRALALSHTYANVSISHVINLWGADFNAEGNLEAIYVTDSDANASIGMKKYFVGINAHGHVAISAKKIEGENIGAQVLGLFTLSSGKEIWQKLSLEHHHHHH
B3: PRT-697 (protein)
chain: MTITSVWTKGVIPPTPEDFRYNNEDVLHAPYVPNQGWYDITKTFDGGDNLLCGAATAGNMLHWWFDQNKEEIERYLKKYPEKQKIIFNNQELFDVRAAINTKDSQTNSKLFNYFRDKAFPNLSARQLGVMPDLVLDMFINGYYLNLGKTQSTDVNRPYQDRDKRGGIFDHVFGRGDQTTLLTARHDLKNGGLNEISDLIKQELQSGKALALSHTYANVRINHVINLWGADFDAEGNLIAIYVTDSDANSSIGMKKYYVGVNANGKVAISAKKIEGDNIGAQVLGLFTLSTGQEIWQKLSLEHHHHHH
B4: PRT-663 (protein)
chain: MQITSVWTKGVTPPTPEQFRYNNEDVIHAPYLAHQGWYDITKTFDGKDNLLCGAATAGNMLHWWFDQNKTEIEAYLSKHPEKQKIIFNNQELFDLKEAINTKDSQTNSQLFNYFRDKAFPNLSARQLGVMPDLVLDMFINGYYLNVFKTQSTDVNRPYQDKDKRGGIFDAVFTRGDQTKLLTARHDLKNKGLNEISTLIKQELTEGKALALSHTYANVSISHVINLWGADFNAEGNLEAIYVTDSDANASIGMKKYFVGINASGHVAISAKKIEGENIGAQVLGLFTLSTGKDIWQKLSLEHHHHHH
B5: PRT-660 (protein)
chain: MQITSVWTKGVTPLTPEQFRYNNEDVIHAPYLAHQGWYDITKAFDGKDNLLCGAATAGNMLHWWFDQNKTEIEAYLSKHPEKQKIIFNNQELFDLRKAINTKDDQKESALFNYFRKKAFPNLSARQLGVMPDLVLDMFINGYYLNVFKTQSTDVNRPYQDKDKRGGIFDAVFTRGDQTTLLTARHDLKNKGLNDISTIIKQELTEGRALALSHTYANVSISHVINLWGADFNAEGNLEAIYVTDSDANASIGMKKYFVGINAHGHVAISAKKIEGENIGAQVLGLFTLSSGKDIWQKLSLEHHHHHH
B6: PRT-684 (protein)
chain: MQITSVWTKGVTPLTPEQFTNNNEDVIHAPYLANQGWYDITKTFNGKDNLLCGAATAGNMLHWWFDQNKEEIEAYLKKHPEKQKIIFNNQELFDLKKAIDTKDSQTNSALFNYFRDKAFPNLSARQLGVMPDLVLDMFINGYYLNVFKTQSTDVNRPYQTKDKRGGIFDAVFTRGDQTTLLTARHDLKNKGLNEISDIIKQELTEGKALALSHTYANVSISHVINLWGADFNAEGNLIAIYVTDSDANASIGMKKYFVGVNSHGKVAISAKKIEGENIGAQVLGLFTLSSGQDIWQKLSLEHHHHHH
B7: PRT-568 (protein)
chain: MANQEIRYSEATPSHITSVWTKGVTPPTQFIQNEDVLHAPYIANQGWYDITKTFNGKDDLLCGAATAGNMLHWWFDQNKTQIENYLKKHPEKQKINFNGEQMFDVKEAIDTKDSQTDSALFSYFKDKAFPYLSTKHLGVFPDHVIDMFINGYRLSLTNHGPTPVKRQTKDPRGGIFDAVFTRGDQSKLLTARHDFKEKTLNEISQLIKQELTEGKALGLSHTYANVRINHVINLWGADFNAEGNLEAIYVTDSDSNASIGMKKYYVGVNAAGHVAISAKEIEGDNIGAQVLGLFTLSTGQDIWQQTNLEHHHHHH
B8: PRT-641 (protein)
chain: MQITSVWTKGVTPLTPEQFRYNNEDVIHAPYLAHQGWYDITKTMNGKDDLLCGAATAGNMLHWWFDQNKTEIEAYLSKHPEKQKIIFNNQELFDLKAAIDTKDSQTNSQLFNYFRDKAFPNLSARQRGVMPDLVLDMFINGYYLNVFKTQSTDVNRPYQDKDKRGGIFDAVFTRGDQTTLLTARHDLKNKGLNDISTIIKQELTEGRALALSHTYANVSISHVINLWGADFNAEGNLEAIYVTDSDARENIGMKKYFVGINAHGHVAISAKKIEGENIGAQVLGLFTLSSGKDIWQKLSLEHHHHHH
B9: PRT-633 (protein)
chain: MQITSVWTKGVTPLTPEQFTNNNEDVIHAPYKANQGWYDITKAFDGKDNLLCGAATAGNMLHWWFDQNKTEIEAYLSKHPEKQKIIFNNQELFDLKAAIDTKDSQTNSQLFNYFRDKAFPNLSARQLGVMPDLVLDMFINGYYLNVFKTQSTDVNRPYQDKDKRGGIFDAVFTRGDQTTLLTARHDLKNKGLNDISTIIKQELTEGKALALSHTYANVSISHVINLWGADFNAEGNLEAIYVTDSDANASIGMKKYFVGINAHGHVAISAKKIEGENIGAQVLGLFTLSSGKDIWQKLSLEHHHHHH
B10: PRT-611 (protein)
chain: B9 chain with T20R, N21Y, K32L, N34H, H185Y, K188Y, K207R
B11: PRT-610 (protein)
chain: B9 chain with T20R, N21Y, K32L, N34H, K207R, F257Y, K271Y
B12: PRT-603 (protein)
chain: B9 chain with S5T, T20R, N21Y, K32L, N34H, K190G, T204Q, E205S, K207R
B13: PRT-651 (protein)
chain: B9 chain with T20R, N21Y, K32L, N34H, P120G, F147G, D160T, K161R, K207R
B14: PRT-619 (protein)
chain: MQITTVWTKGVTPLTPEQFRYNNEDVIHAPYLAHQGWYDITKAFDGKDNLLCGAATAGNMLHWWFDQNKTEIEAYLSKHPEKQKIIFNNQELFDLKAAIDTKDSQTNSQLFNYFRDKAFPNLSARQLGVMPDLVLDMFINGYYLNVFKTQSTDVNRPYQDKDKRGGIFDAVFTRGDQTTLLTARHDLKNGGLEDISTIIKQELKNGRALALSHTYANVSISHVINLWGADFNAEGNLSAIYVTDSDANASIGMKKYFVGINAHGHVAISAKKIEGENIGAQVLGLFTLSSGKDIWQKLSLEHHHHHH

Substitutions are numbered along the chain they refer to.

The target of this data set is pooled human IgG (human IgG1, 2, 3 and 4).
The protein B1 gave an Enzyme Activity Endpoint Assay (purified): Fab′2 of 966 ng/µL, an Enzyme Activity Endpoint Assay (purified): Fc of 482 ng/µL, an Enzyme Activity Endpoint Assay (purified): IgG of 0 ng/µL and an Enzyme Activity Endpoint Assay (purified): scIgG of 0 ng/µL.

Protein B2 gave an Enzyme Activity Endpoint Assay (purified): Fab′2 of 617 ng/µL, an Enzyme Activity Endpoint Assay (purified): Fc of 357 ng/µL, an Enzyme Activity Endpoint Assay (purified): IgG of 100 ng/µL and an Enzyme Activity Endpoint Assay (purified): scIgG of 157 ng/µL.

Regarding B3, the Enzyme Activity Endpoint Assay (purified): Fab′2 was 701 ng/µL, the Enzyme Activity Endpoint Assay (purified): Fc was determined as 430 ng/µL, the Enzyme Activity Endpoint Assay (purified): IgG was 221 ng/µL and the Enzyme Activity Endpoint Assay (purified): scIgG worked out at 161 ng/µL.

For B4, the Enzyme Activity Endpoint Assay (purified): Fab′2 was 825 ng/µL, the Enzyme Activity Endpoint Assay (purified): Fc is 456 ng/µL, the Enzyme Activity Endpoint Assay (purified): IgG was found to be 0 ng/µL and the Enzyme Activity Endpoint Assay (purified): scIgG is 0 ng/µL.

As to B5, the Enzyme Activity Endpoint Assay (purified): Fab′2 came to 161 ng/µL, the Enzyme Activity Endpoint Assay (purified): Fc worked out at 320 ng/µL, the Enzyme Activity Endpoint Assay (purified): IgG stood at 105 ng/µL and the Enzyme Activity Endpoint Assay (purified): scIgG worked out at 668 ng/µL.

In turn, B6 displayed an Enzyme Activity Endpoint Assay (purified): Fab′2 of 1060 ng/µL, an Enzyme Activity Endpoint Assay (purified): Fc of 542 ng/µL, an Enzyme Activity Endpoint Assay (purified): IgG of 0 ng/µL and an Enzyme Activity Endpoint Assay (purified): scIgG of 0 ng/µL.

With B7, the Enzyme Activity Endpoint Assay (purified): Fab′2 came out at 880 ng/µL, the Enzyme Activity Endpoint Assay (purified): Fc was 402 ng/µL, the Enzyme Activity Endpoint Assay (purified): IgG turned out to be 0 ng/µL and the Enzyme Activity Endpoint Assay (purified): scIgG amounted to 0 ng/µL.

For B8, the Enzyme Activity Endpoint Assay (purified): Fab′2 was 975 ng/µL, the Enzyme Activity Endpoint Assay (purified): Fc is 336 ng/µL, the Enzyme Activity Endpoint Assay (purified): IgG was 0 ng/µL and the Enzyme Activity Endpoint Assay (purified): scIgG was determined as 0 ng/µL.

Consider B9, for which the Enzyme Activity Endpoint Assay (purified): Fab′2 worked out at 749 ng/µL, the Enzyme Activity Endpoint Assay (purified): Fc came to 429 ng/µL, the Enzyme Activity Endpoint Assay (purified): IgG was determined as 0 ng/µL and the Enzyme Activity Endpoint Assay (purified): scIgG worked out at 0 ng/µL.

Consider B10, for which the Enzyme Activity Endpoint Assay (purified): Fab′2 is 924 ng/µL, the Enzyme Activity Endpoint Assay (purified): Fc turned out to be 490 ng/µL, the Enzyme Activity Endpoint Assay (purified): IgG is 0 ng/µL and the Enzyme Activity Endpoint Assay (purified): scIgG amounted to 0 ng/µL.

The protein B11 showed an Enzyme Activity Endpoint Assay (purified): Fab′2 of 688 ng/µL, an Enzyme Activity Endpoint Assay (purified): Fc of 381 ng/µL, an Enzyme Activity Endpoint Assay (purified): IgG of 0 ng/µL and an Enzyme Activity Endpoint Assay (purified): scIgG of 0 ng/µL.

B12 returned an Enzyme Activity Endpoint Assay (purified): Fab′2 of 965 ng/µL, an Enzyme Activity Endpoint Assay (purified): Fc of 486 ng/µL, an Enzyme Activity Endpoint Assay (purified): IgG of 0 ng/µL and an Enzyme Activity Endpoint Assay (purified): scIgG of 0 ng/µL.

B13 displayed an Enzyme Activity Endpoint Assay (purified): Fab′2 of 542 ng/µL, an Enzyme Activity Endpoint Assay (purified): Fc of 367 ng/µL, an Enzyme Activity Endpoint Assay (purified): IgG of 168 ng/µL and an Enzyme Activity Endpoint Assay (purified): scIgG of 359 ng/µL.

B14 showed an Enzyme Activity Endpoint Assay (purified): Fab′2 of 140 ng/µL, an Enzyme Activity Endpoint Assay (purified): Fc of 283 ng/µL, an Enzyme Activity Endpoint Assay (purified): IgG of 102 ng/µL and an Enzyme Activity Endpoint Assay (purified): scIgG of 591 ng/µL.

The values above are taken from patent US20250027068.
